According to US20220259593A1, “CONTROL OF MAMMALIAN GENE DOSAGE USING CRISPR” (The Regents of the University of California, priority 2019, published 2022):
Changes are numbered by the printed parent chain.

B1: cr536 (nucleic acid)
guide: GTTTAAGAGCTAAGCTGGAAACAGCATAGCAACTTTAAATAAGGATATTCCGTTATCAACTTGAAAAAGTGGCACCGAGTCGGTGCT
modifications: listed as DNA, chemistry not fully specified
B2: cr225 (nucleic acid)
guide: B1 guide with C33G, G43T, A45C
modifications: listed as DNA, chemistry not fully specified
B3: cr350 (nucleic acid)
guide: B1 guide with C33G, T34C, G43T, A45C, T48G, C51A
modifications: listed as DNA, chemistry not fully specified
B4: cr903 (nucleic acid)
guide: B1 guide with C33G, A45C, T48G, G52C, G79A
modifications: listed as DNA, chemistry not fully specified
B5: cr482 (nucleic acid)
guide: B1 guide with C33G, A45C, A47T, T48G, G52C
modifications: listed as DNA, chemistry not fully specified
B6: cr093 (nucleic acid)
guide: B1 guide with A5C, A6G, C33G, A45C, T48G
modifications: listed as DNA, chemistry not fully specified
B7: cr129 (nucleic acid)
guide: B1 guide with C33G, A45C, T48G, T61G, A65G, A68C
modifications: listed as DNA, chemistry not fully specified
B8: cr674 (nucleic acid)
guide: B1 guide with C33G, G43C, A45C, T48G, C51G, A59T, T70A
modifications: listed as DNA, chemistry not fully specified
B9: cr049 (nucleic acid)
guide: B1 guide with T3G, A5T, C33G, A45C, T48G
modifications: listed as DNA, chemistry not fully specified
B10: cr608 (nucleic acid)
guide: B1 guide with A45G, T48C
modifications: listed as DNA, chemistry not fully specified
B11: cr355 (nucleic acid)
guide: B1 guide with C33G, T34G, A45C, T48G, T62A, A67T
modifications: listed as DNA, chemistry not fully specified
B12: cr149 (nucleic acid)
guide: B1 guide with C33G, G43C, A45C, T48G, C51G, G72T, C86A
modifications: listed as DNA, chemistry not fully specified
B13: cr303 (nucleic acid)
guide: B1 guide with A45C, A47T, T48G, G71T
modifications: listed as DNA, chemistry not fully specified
B14: cr735 (nucleic acid)
guide: B1 guide with A45C, T48G, G71C
modifications: listed as DNA, chemistry not fully specified
B15: cr810 (nucleic acid)
guide: B1 guide with C33G, T34G, A45C, T48G, G77C, C81G
modifications: listed as DNA, chemistry not fully specified
B16: cr981 (nucleic acid)
guide: B1 guide with C33G, G43C, A45C, T48G, C51G, T62G, A67C
modifications: listed as DNA, chemistry not fully specified
B17: cr068 (nucleic acid)
guide: B1 guide with T4A, A5G, C33G, A45C, T48G
modifications: listed as DNA, chemistry not fully specified
B18: cr975 (nucleic acid)
guide: B1 guide with A42T, A45C, T48G
modifications: listed as DNA, chemistry not fully specified
B19: cr271 (nucleic acid)
guide: B1 guide with C33G, A45C, T48G, C73T, A74C, T84G, G85A
modifications: listed as DNA, chemistry not fully specified
B20: cr786 (nucleic acid)
guide: B1 guide with C33G, A41T, A45C, T48G, A55G, C57G
modifications: listed as DNA, chemistry not fully specified
B21: cr244 (nucleic acid)
guide: B1 guide with C33G, T34G, A45G, T48C
modifications: listed as DNA, chemistry not fully specified
B22: cr381 (nucleic acid)
guide: B1 guide with C33G, A41T, A45C, A47C, T48G, A65C
modifications: listed as DNA, chemistry not fully specified
B23: cr469 (nucleic acid)
guide: B1 guide with C33G, A45C, T48G, G52C
modifications: listed as DNA, chemistry not fully specified
B24: cr143 (nucleic acid)
guide: B1 guide with G44A, A45C, T48G, C50T
modifications: listed as DNA, chemistry not fully specified
B25: cr572 (nucleic acid)
guide: B1 guide with C33G, G43C, G44C, A45G, T46A, T48C, C51G
modifications: listed as DNA, chemistry not fully specified
B26: cr245 (nucleic acid)
guide: B1 guide with C33G, T34G, G44A, A45C, T48G, C50T
modifications: listed as DNA, chemistry not fully specified
B27: cr070 (nucleic acid)
guide: B1 guide with G7C, A8G, C33G, A45C, T48G
modifications: listed as DNA, chemistry not fully specified
B28: cr657 (nucleic acid)
guide: B1 guide with C33G, A45C, T48G, C50G
modifications: listed as DNA, chemistry not fully specified
B29: cr874 (nucleic acid)
guide: B1 guide with C33G, T34G, G43T, A45C, T48G, C51A
modifications: listed as DNA, chemistry not fully specified
B30: cr930 (nucleic acid)
guide: B1 guide with A32T, C33G, A45C, T48G, T49G, C57T
modifications: listed as DNA, chemistry not fully specified

The molecules below were run on K562 CRISPRi cells (assay: Constant region variant library pooled growth screen, K562). Conditions: sgRNA constant region variants; activity relative to the original, un-modified constant region cr995.
Assay type: cell-based, human
Procedure, shortened: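 Relative activity expresses each targeting sequence:constant region pair's phenotype over that of the unmodified constant region. Pooled growth screen ran in K562 CRISPRi cells in duplicate spinner-flask replicates, with puromycin selection and 4–8 days' growth at >2000× coverage; library paired variants with 36 targeting sequences.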

Question: How did the Mean relative activity turn out when B1 was run?
Answer: Its Mean relative activity is 0.003951.

Question: Which Mean relative activity does the source give for B2 here?
Answer: The Mean relative activity was 0.002658.

Question: B3 was tested. Which Mean relative activity did it give?
Answer: The Mean relative activity was 0.001423.

Question: How did the Mean relative activity turn out when B4 was run?
Answer: Its Mean relative activity is 0.00222.

Question: How did the Mean relative activity turn out when B5 was run?
Answer: Its Mean relative activity is 0.003006.

Question: With B6 as the molecule, how does the Mean relative activity read?
Answer: The Mean relative activity was 0.001456.

Question: With B7 as the molecule, how does the Mean relative activity read?
Answer: Its Mean relative activity is 1.029.

Question: For B8, which Mean relative activity is on record?
Answer: Its Mean relative activity is 0.00279.

Question: Which Mean relative activity does the source give for B9 here?
Answer: Its Mean relative activity is 0.003203.

Question: B10 was tested. Which Mean relative activity did it give?
Answer: The Mean relative activity was 0.002568.

Question: B11 was tested. Which Mean relative activity did it give?
Answer: Its Mean relative activity is 0.001771.

Question: Which Mean relative activity does the source give for B12 here?
Answer: Its Mean relative activity is 0.00167.

Question: With B13 as the molecule, how does the Mean relative activity read?
Answer: The Mean relative activity was 0.003573.

Question: For B14, which Mean relative activity is on record?
Answer: Its Mean relative activity is 0.002596.

Question: With B15 as the molecule, how does the Mean relative activity read?
Answer: The Mean relative activity was 0.002026.

Question: For B16, which Mean relative activity is on record?
Answer: The Mean relative activity was 0.003266.

Question: Which Mean relative activity does the source give for B17 here?
Answer: The Mean relative activity was 0.002959.

Question: How did the Mean relative activity turn out when B18 was run?
Answer: Its Mean relative activity is 0.002152.

Question: B19 was tested. Which Mean relative activity did it give?
Answer: The Mean relative activity was 1.03.

Question: For B20, which Mean relative activity is on record?
Answer: The Mean relative activity was 0.001749.

Question: For B21, which Mean relative activity is on record?
Answer: Its Mean relative activity is 0.00149.

Question: For B22, which Mean relative activity is on record?
Answer: The Mean relative activity was 0.003196.

Question: How did the Mean relative activity turn out when B23 was run?
Answer: The Mean relative activity was 0.003211.

Question: How did the Mean relative activity turn out when B24 was run?
Answer: Its Mean relative activity is 0.001524.

Question: B25 was tested. Which Mean relative activity did it give?
Answer: The Mean relative activity was 0.002782.

Question: Which Mean relative activity does the source give for B26 here?
Answer: The Mean relative activity was 0.00372.

Question: For B27, which Mean relative activity is on record?
Answer: Its Mean relative activity is 1.03.

Question: B28 was tested. Which Mean relative activity did it give?
Answer: Its Mean relative activity is 0.002604.

Question: With B29 as the molecule, how does the Mean relative activity read?
Answer: The Mean relative activity was 0.002144.

Question: For B30, which Mean relative activity is on record?
Answer: The Mean relative activity was 0.001721.
